Experimental data published in patent publication US20240002541A1 (Johns Hopkins, published 2024).

Legend:
TRBV5-5 = biological target: T1, TRBV5-5 (UniProt A0A597 22-114, limits assumed); test: not stated (column 'Affinity' of Table 1)
T1 construct: The antigen construct is not described; also called T cell receptor β chain variable 5-5
T1 sequence (TCR beta, looked up): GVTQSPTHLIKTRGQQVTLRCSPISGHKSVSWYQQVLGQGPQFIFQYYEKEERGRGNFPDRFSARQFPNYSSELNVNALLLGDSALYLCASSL

[1] = biological target: T2, TRBV5-5 on human T cells and HPB-ALL cells (human, UniProt A0A597 22-114); test: cell-based or functional assay
T2 sequence (TCR beta, looked up): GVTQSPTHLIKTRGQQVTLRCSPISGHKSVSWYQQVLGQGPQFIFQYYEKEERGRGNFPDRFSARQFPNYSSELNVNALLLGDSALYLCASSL

[2] = biological target: T2, TRBV5-5 on human T cells and HPB-ALL …; test: cell-based or functional assay; remark: listed apart in the source
TRBV12 = biological target: T3, TRBV12; test: not stated (column 'Affinity' of Table 1)
T3 chain: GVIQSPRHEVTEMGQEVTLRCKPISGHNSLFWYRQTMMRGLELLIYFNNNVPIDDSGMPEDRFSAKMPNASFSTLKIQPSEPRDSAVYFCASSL

CD3 = biological target: T4, CD3 (UniProt P07766 23-126); test: not stated (column 'Affinity' of Table 1)
T4 construct: The antigen construct is not described; also called cluster of differentiation 3; CD3ε subunit

TRBC1 = biological target: T5, TRBC1 (UniProt P01850 1-130, limits assumed); test: not stated (column 'Affinity' of Table 1)
T5 construct: The antigen construct is not described; also called T cell receptor β chain constant 1; Cβ1 TCR

TRBV12-3 on Jurkat cells [3] = biological target: T6, TRBV12-3 on Jurkat cells (human, UniProt P01733 22-115); test: cell-based or functional assay
T6 sequence (TCR beta, looked up): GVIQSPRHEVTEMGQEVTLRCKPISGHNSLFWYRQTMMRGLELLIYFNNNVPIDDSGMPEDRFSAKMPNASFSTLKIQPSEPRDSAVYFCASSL

TRBV12-3 on Jurkat cells [4] = biological target: T6, TRBV12-3 on Jurkat cells; test: cell-based or functional assay; remark: listed apart in the source
CD19 = biological target: T7, CD19 (UniProt P15391 20-291, limits assumed); test: not stated (column 'Affinity' of Table 1)
T7 construct: The antigen construct is not described
T7 sequence (looked up): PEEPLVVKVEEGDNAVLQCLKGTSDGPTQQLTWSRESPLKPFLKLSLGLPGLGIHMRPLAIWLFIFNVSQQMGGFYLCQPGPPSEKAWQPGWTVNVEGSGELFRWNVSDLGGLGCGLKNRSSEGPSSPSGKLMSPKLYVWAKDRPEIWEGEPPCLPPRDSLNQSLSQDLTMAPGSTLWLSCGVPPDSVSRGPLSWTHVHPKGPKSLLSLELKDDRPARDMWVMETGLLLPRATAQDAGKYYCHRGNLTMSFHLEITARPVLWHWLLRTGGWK

T5 sequence (P01850 1-130 limits assumed): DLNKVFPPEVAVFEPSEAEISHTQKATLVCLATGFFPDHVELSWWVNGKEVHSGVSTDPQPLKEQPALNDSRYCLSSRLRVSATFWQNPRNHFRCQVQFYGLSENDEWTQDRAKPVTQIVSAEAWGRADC
T4 sequence (P07766 23-126): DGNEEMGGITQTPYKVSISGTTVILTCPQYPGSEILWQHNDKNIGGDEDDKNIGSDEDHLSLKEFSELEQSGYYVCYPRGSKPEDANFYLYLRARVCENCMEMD

B1: α-TRBV5-5 scFv (clone TM23) (scFv, V domains shown)
VH: QVQLKESGPGLVAPSQSLSITCTVSGFSLTAYGVNWVRQPPGKGLEWLGMIWGDGNTDYNSALKSRLSISKDNSKSQVFLKMNSLQTDDTARYYCARDRVTATLYAMDYWGQGTSVTVSS
VL: DIQMTQTTSSLSASLGDRVTITCSASQGISNYLNWYQQKPDGTVKLLIYYTSSLHSGVPSRFSGSGSGTDYSLTISNLEPEDIATYYCQQYSKLPRTFGGGTKVEIK
notes: also called anti-TRBV5-5 scFv
TRBV5-5
  Kd: 25.2 nM

B2: anti-TRBV5-5 BsAb (α-V5) (bispecific antibody)
chain: DIQMTQTTSSLSASLGDRVTITCSASQGISNYLNWYQQKPDGTVKLLIYYTSSLHSGVPSRFSGSGSGTDYSLTISNLEPEDIATYYCQQYSKLPRTFGGGTKVEIKGGGGSEVQLVESGGGLVQPGGSLRLSCAASGYSFTGYTMNWVRQAPGKGLEWVALINPYKGVSTYNQKFKDRFTISVDKSKNTAYLQMNSLRAEDTAVYYCARSGYYGDSDWYFDVWGQGTLVTVSSGGGGSGGGGSGGGGSDIQMTQSPSSLSASVGDRVTITCRASQDIRNYLNWYQQKPGKAPKLLIYYTSRLESGVPSRFSGSGSGTDYTLTISSLQPEDFATYYCQQGNTLPWTFGQGTKVEIKGGGGSQVQLKESGPGLVAPSQSLSITCTVSGFSLTAYGVNWVRQPPGKGLEWLGMIWGDGNTDYNSALKSRLSISKDNSKSQVFLKMNSLQTDDTARYYCARDRVTATLYAMDYWGQGTSVTVSSHHHHHH
[1]
  EC50 of the loss of HPB-ALL viability (luminescence), 5x10^4 HPB-ALL cells with 5x10^4 normal human T cells, 17 hours: 2.09 pM
[2]
  EC50 of GM-CSF release (Luminex), HPB-ALL WT + T cells, 17 hours: 42.3 pM
  EC50 of IFNγ release (Luminex), HPB-ALL WT + T cells, 17 hours: 31.1 pM
  EC50 of IL2 release (Luminex), HPB-ALL WT + T cells, 17 hours: 94.5 pM
  EC50 of IL5 release (Luminex), HPB-ALL WT + T cells, 17 hours: 54.4 pM
  EC50 of TNFα release (Luminex), HPB-ALL WT + T cells, 17 hours: 166 pM

B3: α-TRBV12 scFv (clone 16G8) (scFv, V domains shown)
VH: DVQLVESGGGLVQPGGSRKLSCAASGFTFSNFGMHWVRQAPDKGLEWVAYISSGSSTIYYADTLKGRFTISRDNPKNTLFLQMTSLRSEDTAMYYCARRGEGAMDYWGQGTSVTVSS
VL: ENVLTQSPAIMSASLGEKVTMSCRASSSVNYIYWYQQKSDASPKLWIYYTSNLAPGVPTRFSGSGSGNSYSLTISSMEGEDAATYYCQQFTSSPFTFGQGTKLEIK
notes: also called anti-TRBV12 scFv
TRBV12
  Kd: 2.6 nM

B4: α-CD3 scFv (clone UCHT1.v9) (scFv, V domains shown)
VH: EVQLVESGGGLVQPGGSLRLSCAASGYSFTGYTMNWVRQAPGKGLEWVALINPYKGVSTYNQKFKDRFTISVDKSKNTAYLQMNSLRAEDTAVYYCARSGYYGDSDWYFDVWGQGTLVTVSS
VL: DIQMTQSPSSLSASVGDRVTITCRASQDIRNYLNWYQQKPGKAPKLLIYYTSRLESGVPSRFSGSGSGTDYTLTISSLQPEDFATYYCQQGNTLPWTFGQGTKVEIK
notes: also called anti-CD3 scFv
CD3
  Kd: 4.7 nM

B5: α-TRBC1 scFv (clone Jovi-1) (scFv, V domains shown)
VH: EVRLQQSGPDLIKPGASVKMSCKASGYTFTGYVMHWVKQRPGQGLEWIGFINPYNDDIQSNERFRGKATLTSDKSSTTAYMELSSLTSEDSAVYYCARGAGYNFDGAYRFFDFWGQGTTLTVSS
VL: DVVMTQSPLSLPVSLGDQASISCRSSQRLVHSNGNTYLHWYLQKPGQSPKLLIYRVSNRFPGVPDRFSGSGSGTDFTLKISRVEAEDLGIYFCSQSTHVPYTFGGGTKLEIKR
notes: also called anti-TRBC1 scFv
TRBC1
  Kd: 0.4 nM

B6: anti-TRBV12 BsAb (α-V12) (bispecific antibody)
chain: ENVLTQSPAIMSASLGEKVTMSCRASSSVNYIYWYQQKSDASPKLWIYYTSNLAPGVPTRFSGSGSGNSYSLTISSMEGEDAATYYCQQFTSSPFTFGQGTKLEIKGGGGSEVQLVESGGGLVQPGGSLRLSCAASGYSFTGYTMNWVRQAPGKGLEWVALINPYKGVSTYNQKFKDRFTISVDKSKNTAYLQMNSLRAEDTAVYYCARSGYYGDSDWYFDVWGQGTLVTVSSGGGGSGGGGSGGGGSDIQMTQSPSSLSASVGDRVTITCRASQDIRNYLNWYQQKPGKAPKLLIYYTSRLESGVPSRFSGSGSGTDYTLTISSLQPEDFATYYCQQGNTLPWTFGQGTKVEIKGGGGSDVQLVESGGGLVQPGGSRKLSCAASGFTFSNFGMHWVRQAPDKGLEWVAYISSGSSTIYYADTLKGRFTISRDNPKNTLFLQMTSLRSEDTAMYYCARRGEGAMDYWGQGTSVTVSSHHHHHH
TRBV12-3 on Jurkat cells [3]
  EC50 of the loss of Jurkat viability (luminescence), 5x10^4 Jurkat cells with 5x10^4 normal human T cells, 17 hours: 0.78 pM
TRBV12-3 on Jurkat cells [4]
  EC50 of GM-CSF release (Luminex), Jurkat WT + T cells, 17 hours: 12.1 pM
  EC50 of IFNγ release (Luminex), Jurkat WT + T cells, 17 hours: 23.5 pM
  EC50 of IL2 release (Luminex), Jurkat WT + T cells, 17 hours: 20.5 pM
  EC50 of IL5 release (Luminex), Jurkat WT + T cells, 17 hours: 12.4 pM
  EC50 of TNFα release (Luminex), Jurkat WT + T cells, 17 hours: 13.8 pM

B7: α-CD19 scFv (clone HD37) (scFv, V domains shown)
VH: QVQLQQSGAELVRPGSSVKISCKASGYAFSSYWMNWVKQRPGQGLEWIGQIWPGDGDTNYNGKFKGKATLTADESSSTAYMQLSSLASEDSAVYFCARRETTTVGRYYYAMDYWGQGTTVTVSS
VL: DIQLTQSPASLAVSLGQRATISCKASQSVDYDGDSYLNWYQQIPGQPPKLLIYDASNLVSGIPPRFSGSGSGTDFTLNIHPVEKVDAATYHCQQSTEDPWTFGGGTKLEIK
notes: also called anti-CD19 scFv
CD19
  Kd: 0.3 nM
